Test system: human CD34+ cells
Experiment: FACS analysis of erythroid markers CD71 and CD235a on differentiating CD34+ cells
Type: cell-based
Conditions: 25 ng/ml hrBMP4, treated for two days starting from D3 of differentiation
Protocol: To establish the role of BMP signaling in erythroid differentiation, differentiating CD34^+ cells were treated with human recombinant BMP4 (hrBMP4) to activate the pathway, or with dorsomorphin, a known inhibitor of BMP signaling. Knowing that erythroid lineage commitment occurs around D3, differentiating cells were treated for two days starting from D3, to test the effects of these signals on erythrocyte commitment. […] Human CD34+ cells, isolated from peripheral blood of granulocyte colony-stimulating factor-mobilized healthy volunteers, were obtained from the Fred Hutchinson Cancer Research Center. The cells were maintained and differentiated as previously described (Sankaran et al., 2008b; Trompouki et al.,2011). Control and treated stage-matched CD34 cells were washed in PBS and stained with propidium iodide (PI), 1:60 APC-conjugated CD235a (eBioscience, clone HIR2, 17-9987-42), 1:60 FITC-conjugated CD71 (eBioscience, OKT9, 11-0719-42), 1:60 PE-conjugated CD41a (eBioscience, HIP8, 12-0419-42) and 1:60 PE-conjugated CD11b (eBioscience, ICRF44, 12-0118-42). BD Bioscience LSR II flow cytometer was used to record raw FACS data, which were analyzed subsequently using FlowJo 8.6.9 10.0.7 (TreeStar). Human CD34^+ cells, isolated from peripheral blood of granulocyte colony-stimulating factor mobilized healthy volunteers, were purchased from the Fred Hutchinson Cancer Research Center. […]

B1: BMP4: human recombinant BMP4 (R&D) used to activate the BMP pathway (protein)
chain: MIPGNRMLMVVLLCQVLLGGASHASLIPETGKKKVAEIQGHAGGRRSGQSHELLRDFEATLLQMFGLRRRPQPSKSAVIPDYMRDLYRLQSGEEEEEQIHSTGLEYPERPASRANTVRSFHHEEHLENIPGTSENSAFRFLFNLSSIPENEVISSAELRLFREQVDQGPDWERGFHRINIYEVMKPPAEVVPGHLITRLLDTRLVHHNVTRWETFDVSPAVLRWTREKQPNYGLAIEVTHLHQTRTHQGQHVRISRSLPQGSGNWAQLRPLLVTFGHDGRGHALTRRRRAKRSPKHHSQRARKKNKNCRRHSLYVDFSDVGWNDWIVAPPGYQAFYCHGDCPFPLADHLNSTNHAIVQTLVNSVNSSIPKACCVPTELSAISMLYLDEYDKVVLKNYQEMVVEGCGCR
- increase in erythroid cell counts (CD71 and CD235a): 1.5-2 fold

— patent US20190002886A1, “SIGNALING CENTERS OF ERYTHROID DIFFERENTIATION” (THE CHILDREN'S MEDICAL CENTER CORPORATION, priority 2017, published 2019)
